Assay results from the RNAGym collection of RNA variant scans (doi:10.7554/elife.80360).

B1: Hammerhead Ribozyme (parent)
chain: ACCGGAUGUGCUUUCCGGUCUGAUGAGUCCGUGAGGACGAAACAG

Variants of: B1
Test: self-cleavage, relative activity (ratio to wild type); higher = more cleavage; co-transcriptional

Row | Variant | self-cleavage
1 | ACCGGAUGUGCUUUCCGCUCUGAUCAGUCCGUGAGGACGAAACAG [G18C G25C] | 0.347
2 | ACCGGAUGUGCUUUCCGAUCUGAUGAGUCAGUGAGGACGAAACAG [G18A C30A] | 0.607
3 | ACCGGAUGUGCUUUCCGAUCUGAUGAGUCUGUGAGGACGAAACAG [G18A C30U] | 0.783
4 | ACCGGAUGUGCUUUCCGAUCUGAUGAGUCGGUGAGGACGAAACAG [G18A C30G] | 0.381
5 | ACCGGAUGUGCUUUCCGAUCUGAUGAGGCCGUGAGGACGAAACAG [G18A U28G] | 0.542
6 | ACCGGAUGUGCUUUCCGAUCUGAUGAGCCCGUGAGGACGAAACAG [G18A U28C] | 0.388
7 | ACCGGAUGUGCUUUCCGAUCUGAUGAGACCGUGAGGACGAAACAG [G18A U28A] | 0.475
8 | ACCGGAUGUGCUUUCCGAGCUGAUGAGUCCGUGAGGACGAAACAG [G18A U19G] | 0.359
9 | ACCGGAUGUGCUUUCCGAACUGAUGAGUCCGUGAGGACGAAACAG [G18A U19A] | 0.367
10 | ACCGGAUGUGCUUUCCGACCUGAUGAGUCCGUGAGGACGAAACAG [G18A U19C] | 0.402
11 | ACCGGAUGUGCUUUCCGAUCUGAUGAGUCCGUGAGGAUGAAACAG [G18A C38U] | 0.531
12 | ACCGGAUGUGCUUUCCGAUCUGAUGAGUCCGUGAGGAAGAAACAG [G18A C38A] | 0.596
13 | ACCGGAUGUGCUUUCCGAUCUGAUGAGUCCGUGAGGAGGAAACAG [G18A C38G] | 0.453
14 | ACCGGAUGUGCUUUCCGCUGUGAUGAGUCCGUGAGGACGAAACAG [G18C C20G] | 0.34
15 | ACCGGAUGUGCUUUCCGCUUUGAUGAGUCCGUGAGGACGAAACAG [G18C C20U] | 0.339
16 | ACCGGAUGUGCUUUCCGCUAUGAUGAGUCCGUGAGGACGAAACAG [G18C C20A] | 0.285
17 | ACCGGAUGUGCUUUCCGAUCUAAUGAGUCCGUGAGGACGAAACAG [G18A G22A] | 0.276
18 | ACCGGAUGUGCUUUCCGAUCUCAUGAGUCCGUGAGGACGAAACAG [G18A G22C] | 0.417
19 | ACCGGAUGUGCUUUCCGAUCUUAUGAGUCCGUGAGGACGAAACAG [G18A G22U] | 0.373

Row | Variant | self-cleavage
20 | ACCGGAUGUGCUUUCCGAUCUGAUCAGUCCGUGAGGACGAAACAG [G18A G25C] | 0.332
21 | ACCGGAUGUGCUUUCCGAUCUGAUUAGUCCGUGAGGACGAAACAG [G18A G25U] | 0.348
22 | ACCGGAUGUGCUUUCCGAUCUGAUAAGUCCGUGAGGACGAAACAG [G18A G25A] | 0.281
23 | ACCGGAUGUGCUUUCCGAUCUGAUGAGUCCGUGAGGACGAAACCG [G18A A44C] | 0.479
24 | ACCGGAUGUGCUUUCCGAUCUGAUGAGUCCGUGAGGACGAAACUG [G18A A44U] | 0.433
25 | ACCGGAUGUGCUUUCCGAUCUGAUGAGUCCGUGAGGACGAAACGG [G18A A44G] | 0.702
26 | ACCGGAUGUGCUUUCCGCUCUGAUGAGUCCGUGAGGACGAAGCAG [G18C A42G] | 0.372
27 | ACCGGAUGUGCUUUCCGCUCUGAUGAGUCCGUGAGGACGAACCAG [G18C A42C] | 0.328
28 | ACCGGAUGUGCUUUCCGCUCUGAUGAGUCCGUGAGGACGAAUCAG [G18C A42U] | 0.325
29 | ACCGGAUGUGCUUUCCGAUCUGAUGAUUCCGUGAGGACGAAACAG [G18A G27U] | 0.393
30 | ACCGGAUGUGCUUUCCGAUCUGAUGACUCCGUGAGGACGAAACAG [G18A G27C] | 0.43
31 | ACCGGAUGUGCUUUCCGAUCUGAUGAAUCCGUGAGGACGAAACAG [G18A G27A] | 0.519
32 | ACCGGAUGUGCUUUCCGAUCUGAUGAGUCCGUGAUGACGAAACAG [G18A G35U] | 0.594
33 | ACCGGAUGUGCUUUCCGAUCUGAUGAGUCCGUGACGACGAAACAG [G18A G35C] | 0.479
34 | ACCGGAUGUGCUUUCCGAUCUGAUGAGUCCGUGAAGACGAAACAG [G18A G35A] | 0.536
35 | ACCGGAUGUGCUUUCCGAUCUGAUGAGUCCGUGAGGACGAAACAC [G18A G45C] | 0.446
36 | ACCGGAUGUGCUUUCCGAUCUGAUGAGUCCGUGAGGACGAAACAA [G18A G45A] | 0.354
37 | ACCGGAUGUGCUUUCCGAUCUGAUGAGUCCGUGAGGACGAAACAU [G18A G45U] | 0.469
38 | ACCGGAUGUGCUUUCCGCUCUGAUGAGUCCGUGAGGAAGAAACAG [G18C C38A] | 0.327

Row | Variant | self-cleavage
39 | ACCGGAUGUGCUUUCCGCUCUGAUGAGUCCGUGAGGAUGAAACAG [G18C C38U] | 0.453
40 | ACCGGAUGUGCUUUCCGCUCUGAUGAGUCCGUGAGGAGGAAACAG [G18C C38G] | 0.387
41 | ACCGGAUGUGCUUUCCGCUCUGAUGAGUCCGUGAGGUCGAAACAG [G18C A37U] | 0.483
42 | ACCGGAUGUGCUUUCCGCUCUGAUGAGUCCGUGAGGGCGAAACAG [G18C A37G] | 0.398
43 | ACCGGAUGUGCUUUCCGCUCUGAUGAGUCCGUGAGGCCGAAACAG [G18C A37C] | 0.373
44 | ACCGGAUGUGCUUUCCGAUCUGAUGAGUCCGUGAGGACCAAACAG [G18A G39C] | 0.326
45 | ACCGGAUGUGCUUUCCGAUCUGAUGAGUCCGUGAGGACUAAACAG [G18A G39U] | 0.303
46 | ACCGGAUGUGCUUUCCGAUCUGAUGAGUCCGUGAGGACAAAACAG [G18A G39A] | 0.339
47 | ACCGGAUGUGCUUUCCGAUCGGAUGAGUCCGUGAGGACGAAACAG [G18A U21G] | 0.404
48 | ACCGGAUGUGCUUUCCGAUCCGAUGAGUCCGUGAGGACGAAACAG [G18A U21C] | 0.396
49 | ACCGGAUGUGCUUUCCGAUCAGAUGAGUCCGUGAGGACGAAACAG [G18A U21A] | 0.401
50 | ACCGGAUGUGCUUUCCGCUCUGAUGAGUCCAUGAGGACGAAACAG [G18C G31A] | 0.649
51 | ACCGGAUGUGCUUUCCGCUCUGAUGAGUCCCUGAGGACGAAACAG [G18C G31C] | 0.548
52 | ACCGGAUGUGCUUUCCGAUCUGAUGAGUCCGUGAGAACGAAACAG [G18A G36A] | 0.544
53 | ACCGGAUGUGCUUUCCGAUCUGAUGAGUCCGUGAGCACGAAACAG [G18A G36C] | 0.299
54 | ACCGGAUGUGCUUUCCGAUCUGAUGAGUCCGUGAGUACGAAACAG [G18A G36U] | 0.496
55 | ACCGGAUGUGCUUUCCGCUCUGAUGAGUCCGUGAGGACGAAAGAG [G18C C43G] | 0.358
56 | ACCGGAUGUGCUUUCCGCUCUGAUGAGUCCGUGAGGACGAAAUAG [G18C C43U] | 0.292
57 | ACCGGAUGUGCUUUCCGCUCUGAUGAGUCCGUGAGGACGAAAAAG [G18C C43A] | 0.327
